Consider 2 molecules from patent US20210155689A1 (SHANGHAI PHARMAEXPLORER, published 2021).

Assay [1] concerns the target T1, LAG-3-hFc protein (human LAG-3 extracellular region with hFc tag) (human, UniProt P18627 23-450).
T1 construct: also called hLAG-3-hFc; LAG-3 protein; not shown: human IgG Fc fragment (hFc) of the pCpC vector
T1 sequence: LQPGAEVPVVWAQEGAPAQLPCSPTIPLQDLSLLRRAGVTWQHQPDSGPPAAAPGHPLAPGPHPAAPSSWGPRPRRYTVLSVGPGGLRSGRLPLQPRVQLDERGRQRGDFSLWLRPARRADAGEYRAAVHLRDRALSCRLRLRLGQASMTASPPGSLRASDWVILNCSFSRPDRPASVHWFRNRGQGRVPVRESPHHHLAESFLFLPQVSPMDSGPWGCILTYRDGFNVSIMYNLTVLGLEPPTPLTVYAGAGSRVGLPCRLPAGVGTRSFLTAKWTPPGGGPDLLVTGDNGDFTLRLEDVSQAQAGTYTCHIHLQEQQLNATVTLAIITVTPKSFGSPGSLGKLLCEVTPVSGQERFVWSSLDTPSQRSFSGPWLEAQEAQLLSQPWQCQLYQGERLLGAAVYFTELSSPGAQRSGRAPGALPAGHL
Briefly: FACS, inhibition of LAG-3-hFc binding to MHC II on Raji cells, antibody 66.667 nM. The procedure:
The FACS reaction plate incubating the Raji cells was centrifuged to discard the supernatant. The above mixture was added as 100 μl per well to Raji cells and incubated on ice for 1-2 hours. The plate was washed twice with blocking solution (PBS, 2% fetal bovine serum) by centrifugation, added with 100 microliters of fluorescent (Alexa 488)-labeled secondary antibodies per well, and incubated on ice for 1.0 hours. The plate was washed 2-3 times by centrifugation with blocking solution (PBS, 2% fetal bovine serum), added with 100 microliters of PBS per well to suspend cells, and detected using FACS (FACS Calibur, BD) and the results were analyzed. Wherein, the IgG control was murine IgG, and the data in the table is the inhibition rate (%).

Assay [2] deals with T2, monkey LAG-3 on cells (HEK293-cLAG-3 stable cell line) (monkey, UniProt P18627 24-525 (human entry)).
T2 construct: Full-length monkey (Chinese monkey) LAG-3 gene expressed on HEK293 cells
T2 chain: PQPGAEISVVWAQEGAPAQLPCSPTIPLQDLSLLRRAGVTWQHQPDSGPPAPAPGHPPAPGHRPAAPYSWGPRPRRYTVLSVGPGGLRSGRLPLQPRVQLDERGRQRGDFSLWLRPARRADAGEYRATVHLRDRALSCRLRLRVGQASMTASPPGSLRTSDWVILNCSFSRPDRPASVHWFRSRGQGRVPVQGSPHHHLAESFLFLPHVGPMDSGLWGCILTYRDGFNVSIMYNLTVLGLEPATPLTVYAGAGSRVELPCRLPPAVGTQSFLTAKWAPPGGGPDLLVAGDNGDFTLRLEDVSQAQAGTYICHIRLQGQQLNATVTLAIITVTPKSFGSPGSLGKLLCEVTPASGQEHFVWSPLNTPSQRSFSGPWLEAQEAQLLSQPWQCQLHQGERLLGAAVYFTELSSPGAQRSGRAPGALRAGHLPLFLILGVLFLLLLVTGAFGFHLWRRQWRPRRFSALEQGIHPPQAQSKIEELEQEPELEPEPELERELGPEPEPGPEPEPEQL
Briefly: FACS, HEK293-cLAG-3, antibody 0.064 nM. An excerpt: (§1) The pIRES plasmid with the monkey-derived full-length gene was transfected into the HEK293 cell line to construct a HEK293 stable cell line containing monkey LAG-3 (herein referred to as HEK293-cLAG-3 stable cell line). The HEK293-hLAG-3 stable cell line and HEK293-cLAG-3 stable cell line were expanded in a T-75 cell culture flask to a 90% confluence. The medium was aspirated, and the cells were washed with HBSS (Hanks' Balanced Salt Solution) 1-2 times, then treated with a enzyme-free cell dissociation fluid (Versene solution: Life technology) and the cells were collected. The cells were washed with HBSS buffer for 1-2 times. After counted, the cells were diluted with HBSS to 1-2×10⁶ cells per ml, added with 1% goat serum blocking solution, incubated on ice for 20-30 minutes, and then washed with HBSS for 2 times by centrifugation. The collected cells were suspended in the FACS buffer (HBSS+1% BSA) to 2×10⁶ cells/ml, added as 100 microliters per well to a 96-well FACS reaction plate, added with 100 microliters per well of the antibody sample to be tested, incubated on ice for 1-2 hours. The plate was washed twice with the FACS buffer by centrifugation, added with 100 microliters of fluorescent (Alexa 488)-labeled secondary antibodies per well, and incubated on ice for 0.5-1.0 hours. The plate was washed 2-3 times with FACS buffer by centrifugation, added with 100 μl fixative solution (4% Paraformaldehyde) per well to suspend the cells. 5-10 minutes later, it was washed 1-2 times with FACS buffer by centrifugation. The cells were suspended with 100 microliters of FACS buffer, FACS (FACSCalibur, BD) was used for detection and the results were analyzed.

Assay [3] has as its target T3, human LAG-3 on cells (HEK293-hLAG-3 stable cell line) (human, UniProt P18627 23-525).
T3 sequence: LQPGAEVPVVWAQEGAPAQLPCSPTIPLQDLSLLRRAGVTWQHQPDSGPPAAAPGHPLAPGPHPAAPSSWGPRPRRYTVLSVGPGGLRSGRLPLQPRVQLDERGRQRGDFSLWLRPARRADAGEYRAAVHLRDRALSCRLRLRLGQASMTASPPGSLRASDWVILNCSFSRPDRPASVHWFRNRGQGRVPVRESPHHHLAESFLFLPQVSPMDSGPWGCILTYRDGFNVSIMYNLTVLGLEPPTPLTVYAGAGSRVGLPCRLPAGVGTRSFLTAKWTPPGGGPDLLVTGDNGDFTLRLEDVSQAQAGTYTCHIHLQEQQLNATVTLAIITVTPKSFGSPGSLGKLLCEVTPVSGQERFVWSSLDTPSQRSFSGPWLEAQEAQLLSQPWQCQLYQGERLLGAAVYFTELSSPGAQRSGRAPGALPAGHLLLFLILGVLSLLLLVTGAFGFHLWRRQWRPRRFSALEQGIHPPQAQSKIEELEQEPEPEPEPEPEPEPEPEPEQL
Description: FACS, HEK293-hLAG-3, antibody 200.000 nM.
Excerpt: as §1

B1: 409B11E12 mouse-human chimeric antibody (antibody, V domains shown)
VH: QVQLQQSGAELVRPGASVTLSCKASGYTFTDYEMHWVKQTTVHGLEWIGATDPETSYSAYNQKFKGKAILTADKSSSTAYMELRSLTSEDSAVYYCIATGWNDWGQGTSLTVSS
VL: DLKMTQSPSSMYASLGERVTITCKASQDINSYLSWFQQKPGKSPKTLIYRANRLLDGVPSRFSGSGSGQDYSLTISSLEYEDMGIYYCLQYDEFPYTFGGGTKLEIK
notes: also called mAb104-409B11E12
For the molecule B1, the “Inhibition rate (%)” value in assay [1] was found to be 95.3%. Also, the Mean fluorescence intensity came out at 4.95 in assay [2] and 171 in assay [3].

B2: 409D4E10 mouse-human chimeric antibody (antibody, V domains shown)
VH: QVQLQQSGAELVRPGASVTLSCKASGNTFTDYEMHWVKQTPVHGLEWIGATDPETDNTAYNQKFKGKAILTTDKSSSTAYMELRSLTSEDSAVYYCITSGWNDWGQGTSLTVSS
VL: DIKMTQSPSSMYASLGERVTITCKASQDINSYLSWFQQKPGKSPKTLIYRANRLLDGVPSRFSGSGSGQDYSLTISSLEYEDMGIYYCLQYNEFPYTFGGGTKLEIK
notes: also called mAb112-409D4E10
Take B2: in assay [1], the “Inhibition rate (%)” value came out at 95.9%. The Mean fluorescence intensity was determined as 4.42 in assay [2] and 151 in assay [3].
